Laboratory results as given in patent US20020172962, “Methods of producing nucleic acid ligands” (GILEAD SCIENCES, INC., published 2002).

Columns and labels:
[1] = molecular target: T1, HIV-1 reverse transcriptase (HIV-RT) (HIV-1, UniProt P03366;P03366 P03366:600-1159,P03366:600-1039); test: footprint; chemical protection and modification interference
Excerpt: Selection of modified RNAs by HIV-RT. Binding reactions were as above except that rather than to vary the amount of HIV-RT added to a reaction, the volume of reaction was increased in order to lower concentration. RNAs that were modified under denaturing conditions were selected at concentrations of 20, 4 and 0.8 nanomolar HIV-RT (in volumes of 1, 5 and 25 mls of binding buffer.) The amount of RNA added to each reaction was equivalent for each experiment (approximately 1-5 picomoles). RNA was eluted from filters as described in Tuerk et al. (1990) J. Mol. Biol. 213:749; Tuerk and Gold (1990) Science 249:505-510, and assayed for modified positions. In each experiment a control was included in which unselected RNA was spotted on a filter, eluted and assayed for modified positions in parallel with the selected RNAs. Determinations of variation in chemical modification for selected versus unselected RNAs were made by visual inspection of exposed films of electrophoresed assay products with the following exceptions. The extent of modification interference by ENU was determined by densitometric scanning of films using an LKB laser densitomer. An index of modification interference (M.I.) at each position was calculated as follows:
Assay of chemical modification. […]

[2] = molecular target: T1, HIV-1 reverse transcriptase (HIV-RT); test: filter; selected by HIV-RT from mixed 2'-OMe/2'-OH population
HIV-1 Rev [3] = molecular target: T2, HIV-1 Rev (HIV-1, UniProt P04618 P04618:1-116); test: filter; high-affinity ligand; modification interference; 200 mM KOAc, 50 mM Tris pH 7.7, 10 mM DTT, 37 C; conditions: tags: American Biotechnologies, Inc
Description: (§1) Chemical Modification of RNA. Chemical modification techniques for nucleic acids are described in general in Ehresmann et al. (1987) Nucleic Acids Research 15:9109-9128. Modification of RNA under native conditions was performed in 200 mM KOAc, 50 mM Tris-HCl pH 7.7, 1 mM EDTA at 37° C. Modification under denaturing conditions was done in 7 M urea, 50 mM Tris-HCl pH 7.7 at 90° C. Concentration of modifying agents and incubation times are as follows: ethylnitrosourea (ENU)-1/5 dilution v/v of ethanol saturated with ENU, native 1-3 hours, denaturing 5 minutes; dimethyl sulfate (DMS)-1/750-fold dilution v/v, native 8 minutes, denaturing 1 minute; kethoxal- 0.5 mg/ml, native 5 minutes, denaturing 2 minutes; carbodiimide (CMCT)-10 mg/ml, native 30 minutes, denaturing 3 minutes; diethyl pyrocarbonate (DEPC)-1/10 dilution v/v, native 10 minutes, denaturing 1 minute.
Modification interference of Rev binding. RNAs chemically modified under denaturing conditions were selected for Rev binding through filter partitioning. […]
The extent of modification interference was determined by densitometric scanning of autoradiographs using LKB (ENU) and Molecular Dynamics (DMS, kethoxal, CMCT, and DEPC) laser densitometers. […]

HIV-1 Rev [4] = molecular target: T2, HIV-1 Rev; test: footprint; 200 mM KOAc, 50 mM Tris pH 7.7, 1 mM DTT, 5 mM MgCl2; 500 nM Rev; conditions: tags: American Biotechnologies, Inc
Description: as §1
Modification of RNA in the presence of Rev. “Footprinting” of the Rev ligand, modification of the RNA ligand in the presence of Rev protein, was performed in 200 mM KOAc, 50 mM Tris-Cl pH 7.7, 1 mM DTT, and 5 mM MgCl₂. Concentration of protein was 500 nanomolar, and approximately in 3-fold molar excess over RNA concentration. Modification with protein present was attempted with all modifying agents listed above except ethylnitrosourea (ENU).

T2 sequence (P04618 whole entry, one chain of several): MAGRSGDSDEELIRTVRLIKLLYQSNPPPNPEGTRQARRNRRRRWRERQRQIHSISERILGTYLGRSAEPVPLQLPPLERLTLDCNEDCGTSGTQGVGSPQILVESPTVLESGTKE

B1: lengthened ligand B (ssRNA)
RNA: GGUCCGAAGUGCAACGGGAAAAUGCACUAUGAAAGAAUUUUAUAUCUCUAUUGAAAC
[1]
  binding result: binds

B2: 2'-methoxy mixed ligand B oligonucleotide (mixed)
RNA: AAAAAUCCGAAGUGCAACGGGAAAAUGCACU
modifications: AAAAA 5' tail deoxy; UCCGA and ACGGGAAAA mixed 2'-OH/2'-OMe; AGUGCA and UGCACU 2'-OMe
[2]
  binding result: binds

## GGGUGCAUUGAGAAACACGUUUGUGGACUCUGUAUCU (ssRNA) [Rev ligand 6a]
HIV-1 Rev [3]
  binding result: binds

B3: extended Rev ligand 6a (ssRNA)
RNA: GGGUGCAUUGAGAAACACGUUUGUGGACUCUGUAUCUAUGAAAGAAUUUUAUAUCUCUAUUGAAAC
HIV-1 Rev [4]
  binding result: binds
